Measurements as given in the RNAGym collection of RNA variant scans (doi:10.1101/gr.219683.116).

B1: mRNA-splicing (parent)
chain: AGUUGCUGCUGGGAGCUCCAGCACAGUGAAAUGGACAGAAGGGCAGAGCAA

Variants of: B1
Assay: exon inclusion enrichment index; higher = more inclusion; WT1 exon 5 minigene, HEK293

Variant	exon inclusion enrichment index
AGUUAGGGAUGGGAGCUCCAGCACAGUGAAAUGGACAGACAGGCAGAGCAA	0.00061
AGUUAGGGAUGGGAGCUCCAGCACAGUGAAAUGGACAGGAGGGCAGAGCAA	0.00219
AGUUAGGGAUGGGAGCUCCAGCACAGUGAAAUGGACAGUAGGGCAGAGCAA	0.000789
AGUUAGGGAUGGGAGCUCCAGCACAGUGAAAUGGACAGCAGGGCAGAGCAA	0.00101
AGUUAGGGAUGGGAGCUCCAGCACAGUGAAAUGGACAGAAGGGCCAAGCAA	0.000901
AGUUAGGGAUGGGAGCUCCAGCACAGUGAUGUGGACAGAAGGGCAGAGCAA	0.000854
AGUUAGGGAUGGGAGCUCCAGCACAGUGAUUUGGACAGAAGGGCAGAGCAA	0.00264
AGUUAGGGAUGGGAGCUCCAGCACAGUGAUCUGGACAGAAGGGCAGAGCAA	0.00225
AGUUAGGGAUGGGAGCUCCAGCACAGUGAAAUGGGAAGAAGGGCAGAGCAA	0.00181
AGUUAGGGAUGGGAGCUCCAGCACAGUGAAAUGGGGAGAAGGGCAGAGCAA	0.00533
AGUUAGGGAUGGGAGCUCCAGCACAGUGAAAUGGGUAGAAGGGCAGAGCAA	0.00169
AGUUAGGGAUGGGAGCUCCAGCACCAUGAAAUGGACAGAAGGGCAGAGCAA	0.00349
AGUUAGGGAUGGGAGCUCCAGCACCCUGAAAUGGACAGAAGGGCAGAGCAA	0.00427
AGUUAGGGAUGGGAGCUCCAGCACCUUGAAAUGGACAGAAGGGCAGAGCAA	0.00184
AGUUAGGGAUGGGAGCUCCAGCACAGUGAAAUGGACAGUGGGGCAGAGCAA	0.00317
AGUUAGGGAUGGGAGCUCCAGCACAGUGAAAUGGACAGUUGGGCAGAGCAA	0.00155
AGUUAGGGAUGGGAGCUCCAGCACAGUGAAAUGGACAGUCGGGCAGAGCAA	0.0022
AGUUAGGGAUGGGAGCUCCAGCACUUUGAAAUGGACAGAAGGGCAGAGCAA	0.000854
AGUUAGGGAUGGGAGCUCCAGCACUAUGAAAUGGACAGAAGGGCAGAGCAA	0.00161
AGUUAGGGAUGGGAGCUCCAGCACUCUGAAAUGGACAGAAGGGCAGAGCAA	0.00304
AGUUAGGGAUGGGAGCUCCAGCUCAGUGAAAUGGACAGAAGGGCAGAGCAA	0.0012
AGUUAGGGAUGGGAGCUCCAGCACAGUGAAGCGGACAGAAGGGCAGAGCAA	0.00508
AGUUAGGGAUGGGAGCUCCAGCACAGUGAAGAGGACAGAAGGGCAGAGCAA	0.0281
AGUUAGGGAUGGGAGCUCCAGCACAGUGAAGGGGACAGAAGGGCAGAGCAA	0.0039
AGUUAGGGAUGGGAGCUCCAGCACAGUGAAAUGGACAGAGCGGCAGAGCAA	0.0252
AGUUAGGGAUGGGAGCUCCAGCACAGUGAAAUGGACAGAGAGGCAGAGCAA	0.0007

Variant	exon inclusion enrichment index
AGUUAGGGAUGGGAGCUCCAGCACAGUGAAAUGGACAGAGUGGCAGAGCAA	0.00052
AGUUAGGGAUGGGAGCUCCAGCACAGUGAAAUGGUGAGAAGGGCAGAGCAA	0.00119
AGUUAGGGAUGGGAGCUCCAGCACAGUGAAAUGGUUAGAAGGGCAGAGCAA	0.000752
AGUUAGGGAUGGGAGCUCCAGCACAGUGAAAUGGUAAGAAGGGCAGAGCAA	0.001
AGUUAGGGAUGGGAGCUCCAGCACAGUGAGUUGGACAGAAGGGCAGAGCAA	0.000963
AGUUAGGGAUGGGAGCUCCAGCACAGUGAGGUGGACAGAAGGGCAGAGCAA	0.00115
AGUUAGGGAUGGGAGCUCCAGCACAGUGAGCUGGACAGAAGGGCAGAGCAA	0.00143
AGUUAGGGAUGGGAGCUCCAGCACAGUGAAAUGGACAGGCGGGCAGAGCAA	0.00397
AGUUAGGGAUGGGAGCUCCAGCACAGUGAAAUGGACAGGUGGGCAGAGCAA	0.00199
AGUUAGGGAUGGGAGCUCCAGCACAGUGAAAUGGACAGGGGGGCAGAGCAA	0.0132
AGUUAGGGAUGGGAGCUCCAGCACAGUGAAAUGGCGAGAAGGGCAGAGCAA	0.00118
AGUUAGGGAUGGGAGCUCCAGCACAGUGAAAUGGCUAGAAGGGCAGAGCAA	0.000826
AGUUAGGGAUGGGAGCUCCAGCACAGUGAAAUGGCAAGAAGGGCAGAGCAA	0.000972
AGUUAGGGAUGGGAGCUCCAGCACCGUGAAAUGGACAGAAGGGCAGAGCAA	0.0135
AGUUAGGGAUGGGAGCUCCAGCACGGUGAAAUGGACAGAAGGGCAGAGCAA	0.0133
AGUUAGGGAUGGGAGCUCCAGCACUGUGAAAUGGACAGAAGGGCAGAGCAA	0.00086
AGUUAGGGAUGGGAGCUCCAGCUUAGUGAAAUGGACAGAAGGGCAGAGCAA	0.000744
AGUUAGGGAUGGGAGCUCCAGCUGAGUGAAAUGGACAGAAGGGCAGAGCAA	0.000949
AGUUAGGGAUGGGAGCUCCAGCUAAGUGAAAUGGACAGAAGGGCAGAGCAA	0.000776
AGUUAGGGAUGGGAGCUCCAGCACAGUGAAAUGGACUAAAGGGCAGAGCAA	0.00155
AGUUAGGGAUGGGAGCUCCAGCACAGUGAAAUGGACUUAAGGGCAGAGCAA	0.00105
AGUUAGGGAUGGGAGCUCCAGCACAGUGAAAUGGACUCAAGGGCAGAGCAA	0.00236
AGUUAGGGAUGGGAGCUCCAGCACAGUGAAAUGGACUGAAGGGCAGAGCAA	0.00604
AGUUAGGGAUGGGAGCUCCAGCACAGUGAAAUGGACCGAAGGGCAGAGCAA	0.00434
AGUUAGGGAUGGGAGCUCCAGCACAGUGAAAUGGACGGAAGGGCAGAGCAA	0.00135
